Test [1] deals with pGBT9-Fas (191-319AA): intracellular domain of Fas/APO-1 fused to the GAL4 DNA-binding domain (human). Kind of test: yeast two-hybrid β-galactosidase filter assay.
Test [2] deals with P53 (yeast two-hybrid control). In words: yeast two-hybrid β-galactosidase filter assay (control pair).

The values below come from patent US7179650.

P53 (yeast two-hybrid control), sequence (P02340 72-390): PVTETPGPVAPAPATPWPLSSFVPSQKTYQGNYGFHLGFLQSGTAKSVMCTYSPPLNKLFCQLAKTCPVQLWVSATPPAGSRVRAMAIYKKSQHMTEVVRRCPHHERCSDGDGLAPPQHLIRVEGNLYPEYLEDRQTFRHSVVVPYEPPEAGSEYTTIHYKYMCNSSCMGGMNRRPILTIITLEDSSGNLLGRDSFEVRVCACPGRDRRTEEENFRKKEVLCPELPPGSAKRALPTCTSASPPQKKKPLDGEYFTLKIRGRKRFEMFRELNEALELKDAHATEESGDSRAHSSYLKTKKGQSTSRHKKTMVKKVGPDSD

Substance “Clone 68: in-frame fusion of the Gal4 activation domain to the death domain of FADD/MORT1 (from UniProt Q13158 80-208)” yielded a time for the colony to turn blue in test [1] below 3 h.
For “SV40 T antigen (yeast two-hybrid control) (from UniProt P03070 84-708)”, in test [2], the time for the colony to turn blue is below 30 min.
For “Sentrin-1 (SEQ ID NO:2) fused to the Gal4 activation-domain (from UniProt A7WLH8 1-101)”, in test [1], the time for the colony to turn blue is below 3 h.
